Numbered stars: 1 amine (or outer) side, 2 acyl side, 3 side chain; on linkers, the order of the positions; unused ones are H or OH. Bridge positions count the residues as written; N and C are the ends. Square brackets hold non-standard residues; d marks the D form. Side chains are listed from the residue outwards. Ends that are not written are not given here. * marks the point of attachment. C18 diacid = O=C(O)CCCCCCCCCCCCCCCCC(=O)*; γGlu = O=C(O)[C@H](CCC(=O)[*:2])N[*:1]; Aib = CC(C)(N)C(=O)O
T1: human amylin receptor (calcitonin receptor co-expressed with receptor activity modifying protein, RAMP3) (human, UniProt P30988 25-474; O60896 24-148)
T1 sequence (looked up) 1: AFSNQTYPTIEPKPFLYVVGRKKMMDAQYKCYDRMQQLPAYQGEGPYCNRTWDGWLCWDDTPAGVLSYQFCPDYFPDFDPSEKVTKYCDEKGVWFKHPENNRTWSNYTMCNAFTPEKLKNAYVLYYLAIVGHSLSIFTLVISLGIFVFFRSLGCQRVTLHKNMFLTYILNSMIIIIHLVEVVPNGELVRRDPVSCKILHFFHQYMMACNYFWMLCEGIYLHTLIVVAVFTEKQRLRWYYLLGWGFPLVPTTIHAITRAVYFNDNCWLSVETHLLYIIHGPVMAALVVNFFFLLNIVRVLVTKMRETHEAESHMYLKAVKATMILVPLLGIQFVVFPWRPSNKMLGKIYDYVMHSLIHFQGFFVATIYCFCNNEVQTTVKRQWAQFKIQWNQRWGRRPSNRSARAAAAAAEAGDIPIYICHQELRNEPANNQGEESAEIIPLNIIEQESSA
T1 sequence (looked up) 2: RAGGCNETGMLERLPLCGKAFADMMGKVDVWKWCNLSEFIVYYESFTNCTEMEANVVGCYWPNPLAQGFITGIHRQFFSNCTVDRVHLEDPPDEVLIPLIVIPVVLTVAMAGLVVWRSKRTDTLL

T2: human calcitonin receptor (human, UniProt P30988 25-474)
T2 sequence (looked up): T1 sequence (looked up) 1

B1: Peptide 68 (SEQ ID NO: 68) (peptide)
peptide: {C18 diacid-γGlu}-CNTATCATQRLANFLVHSS[Aib]NFGPILPPTRVGSNTY-NH2
modifications: disulfide 1-6
SMILES: CC[C@H](C)[C@H](NC(=O)[C@@H]1CCCN1C(=O)CNC(=O)[C@H](Cc1ccccc1)NC(=O)[C@H](CC(N)=O)NC(=O)C(C)(C)NC(=O)[C@H](CO)NC(=O)[C@H](CO)NC(=O)[C@H](Cc1c[nH]cn1)NC(=O)[C@@H](NC(=O)[C@H](CC(C)C)NC(=O)[C@H](Cc1ccccc1)NC(=O)[C@H](CC(N)=O)NC(=O)[C@H](C)NC(=O)[C@H](CC(C)C)NC(=O)[C@H](CCCNC(=N)N)NC(=O)[C@H](CCC(N)=O)NC(=O)[C@@H](NC(=O)[C@H](C)NC(=O)[C@@H]1CSSC[C@H](NC(=O)CC[C@H](NC(=O)CCCCCCCCCCCCCCCCC(=O)O)C(=O)O)C(=O)N[C@@H](CC(N)=O)C(=O)N[C@@H]([C@@H](C)O)C(=O)N[C@@H](C)C(=O)N[C@@H]([C@@H](C)O)C(=O)N1)[C@@H](C)O)C(C)C)C(=O)N[C@@H](CC(C)C)C(=O)N1CCC[C@H]1C(=O)N1CCC[C@H]1C(=O)N[C@H](C(=O)N[C@@H](CCCNC(=N)N)C(=O)N[C@H](C(=O)NCC(=O)N[C@@H](CO)C(=O)N[C@@H](CC(N)=O)C(=O)N[C@H](C(=O)N[C@@H](Cc1ccc(O)cc1)C(N)=O)[C@@H](C)O)C(C)C)[C@@H](C)O
B2: Peptide 65 (SEQ ID NO: 65) (peptide)
peptide: K([γGlu-C18 diacid])KCNTATCATQRLANFLRHSS[Aib]NFGPILPPTNVGSNTY-NH2
modifications: disulfide 3-8; N-terminus assumed
SMILES: CC[C@H](C)[C@H](NC(=O)[C@@H]1CCCN1C(=O)CNC(=O)[C@H](Cc1ccccc1)NC(=O)[C@H](CC(N)=O)NC(=O)C(C)(C)NC(=O)[C@H](CO)NC(=O)[C@H](CO)NC(=O)[C@H](Cc1c[nH]cn1)NC(=O)[C@H](CCCNC(=N)N)NC(=O)[C@H](CC(C)C)NC(=O)[C@H](Cc1ccccc1)NC(=O)[C@H](CC(N)=O)NC(=O)[C@H](C)NC(=O)[C@H](CC(C)C)NC(=O)[C@H](CCCNC(=N)N)NC(=O)[C@H](CCC(N)=O)NC(=O)[C@@H](NC(=O)[C@H](C)NC(=O)[C@@H]1CSSC[C@H](NC(=O)[C@H](CCCCN)NC(=O)[C@@H](N)CCCCNC(=O)CC[C@H](NC(=O)CCCCCCCCCCCCCCCCC(=O)O)C(=O)O)C(=O)N[C@@H](CC(N)=O)C(=O)N[C@@H]([C@@H](C)O)C(=O)N[C@@H](C)C(=O)N[C@@H]([C@@H](C)O)C(=O)N1)[C@@H](C)O)C(=O)N[C@@H](CC(C)C)C(=O)N1CCC[C@H]1C(=O)N1CCC[C@H]1C(=O)N[C@H](C(=O)N[C@@H](CC(N)=O)C(=O)N[C@H](C(=O)NCC(=O)N[C@@H](CO)C(=O)N[C@@H](CC(N)=O)C(=O)N[C@H](C(=O)N[C@@H](Cc1ccc(O)cc1)C(N)=O)[C@@H](C)O)C(C)C)[C@@H](C)O
B3: Peptide 70 (SEQ ID NO: 70) (peptide)
peptide: K([γGlu-γGlu-C18 diacid])KCNTATCATQRLANFLVHSS[Aib]NFGPILPPTRVGSNTY-NH2
modifications: disulfide 3-8; N-terminus assumed
SMILES: CC[C@H](C)[C@H](NC(=O)[C@@H]1CCCN1C(=O)CNC(=O)[C@H](Cc1ccccc1)NC(=O)[C@H](CC(N)=O)NC(=O)C(C)(C)NC(=O)[C@H](CO)NC(=O)[C@H](CO)NC(=O)[C@H](Cc1c[nH]cn1)NC(=O)[C@@H](NC(=O)[C@H](CC(C)C)NC(=O)[C@H](Cc1ccccc1)NC(=O)[C@H](CC(N)=O)NC(=O)[C@H](C)NC(=O)[C@H](CC(C)C)NC(=O)[C@H](CCCNC(=N)N)NC(=O)[C@H](CCC(N)=O)NC(=O)[C@@H](NC(=O)[C@H](C)NC(=O)[C@@H]1CSSC[C@H](NC(=O)[C@H](CCCCN)NC(=O)[C@@H](N)CCCCNC(=O)CC[C@H](NC(=O)CC[C@H](NC(=O)CCCCCCCCCCCCCCCCC(=O)O)C(=O)O)C(=O)O)C(=O)N[C@@H](CC(N)=O)C(=O)N[C@@H]([C@@H](C)O)C(=O)N[C@@H](C)C(=O)N[C@@H]([C@@H](C)O)C(=O)N1)[C@@H](C)O)C(C)C)C(=O)N[C@@H](CC(C)C)C(=O)N1CCC[C@H]1C(=O)N1CCC[C@H]1C(=O)N[C@H](C(=O)N[C@@H](CCCNC(=N)N)C(=O)N[C@H](C(=O)NCC(=O)N[C@@H](CO)C(=O)N[C@@H](CC(N)=O)C(=O)N[C@H](C(=O)N[C@@H](Cc1ccc(O)cc1)C(N)=O)[C@@H](C)O)C(C)C)[C@@H](C)O
B4: Peptide 66 (SEQ ID NO: 66) (peptide)
peptide: K([γGlu-γGlu-C18 diacid])KCNTATCATQRLANFLRHSS[Aib]NFGPILPPTNVGSNTY-NH2
modifications: disulfide 3-8; N-terminus assumed
SMILES: CC[C@H](C)[C@H](NC(=O)[C@@H]1CCCN1C(=O)CNC(=O)[C@H](Cc1ccccc1)NC(=O)[C@H](CC(N)=O)NC(=O)C(C)(C)NC(=O)[C@H](CO)NC(=O)[C@H](CO)NC(=O)[C@H](Cc1c[nH]cn1)NC(=O)[C@H](CCCNC(=N)N)NC(=O)[C@H](CC(C)C)NC(=O)[C@H](Cc1ccccc1)NC(=O)[C@H](CC(N)=O)NC(=O)[C@H](C)NC(=O)[C@H](CC(C)C)NC(=O)[C@H](CCCNC(=N)N)NC(=O)[C@H](CCC(N)=O)NC(=O)[C@@H](NC(=O)[C@H](C)NC(=O)[C@@H]1CSSC[C@H](NC(=O)[C@H](CCCCN)NC(=O)[C@@H](N)CCCCNC(=O)CC[C@H](NC(=O)CC[C@H](NC(=O)CCCCCCCCCCCCCCCCC(=O)O)C(=O)O)C(=O)O)C(=O)N[C@@H](CC(N)=O)C(=O)N[C@@H]([C@@H](C)O)C(=O)N[C@@H](C)C(=O)N[C@@H]([C@@H](C)O)C(=O)N1)[C@@H](C)O)C(=O)N[C@@H](CC(C)C)C(=O)N1CCC[C@H]1C(=O)N1CCC[C@H]1C(=O)N[C@H](C(=O)N[C@@H](CC(N)=O)C(=O)N[C@H](C(=O)NCC(=O)N[C@@H](CO)C(=O)N[C@@H](CC(N)=O)C(=O)N[C@H](C(=O)N[C@@H](Cc1ccc(O)cc1)C(N)=O)[C@@H](C)O)C(C)C)[C@@H](C)O
B5: Peptide 69 (SEQ ID NO: 69) (peptide)
peptide: K([γGlu-C18 diacid])KCNTATCATQRLANFLVHSS[Aib]NFGPILPPTRVGSNTY-NH2
modifications: disulfide 3-8; N-terminus assumed
SMILES: CC[C@H](C)[C@H](NC(=O)[C@@H]1CCCN1C(=O)CNC(=O)[C@H](Cc1ccccc1)NC(=O)[C@H](CC(N)=O)NC(=O)C(C)(C)NC(=O)[C@H](CO)NC(=O)[C@H](CO)NC(=O)[C@H](Cc1c[nH]cn1)NC(=O)[C@@H](NC(=O)[C@H](CC(C)C)NC(=O)[C@H](Cc1ccccc1)NC(=O)[C@H](CC(N)=O)NC(=O)[C@H](C)NC(=O)[C@H](CC(C)C)NC(=O)[C@H](CCCNC(=N)N)NC(=O)[C@H](CCC(N)=O)NC(=O)[C@@H](NC(=O)[C@H](C)NC(=O)[C@@H]1CSSC[C@H](NC(=O)[C@H](CCCCN)NC(=O)[C@@H](N)CCCCNC(=O)CC[C@H](NC(=O)CCCCCCCCCCCCCCCCC(=O)O)C(=O)O)C(=O)N[C@@H](CC(N)=O)C(=O)N[C@@H]([C@@H](C)O)C(=O)N[C@@H](C)C(=O)N[C@@H]([C@@H](C)O)C(=O)N1)[C@@H](C)O)C(C)C)C(=O)N[C@@H](CC(C)C)C(=O)N1CCC[C@H]1C(=O)N1CCC[C@H]1C(=O)N[C@H](C(=O)N[C@@H](CCCNC(=N)N)C(=O)N[C@H](C(=O)NCC(=O)N[C@@H](CO)C(=O)N[C@@H](CC(N)=O)C(=O)N[C@H](C(=O)N[C@@H](Cc1ccc(O)cc1)C(N)=O)[C@@H](C)O)C(C)C)[C@@H](C)O
B6: Peptide 67 (SEQ ID NO: 67) (peptide)
peptide: K([γGlu-γGlu-C18 diacid])CNTATCATQRLANFLVHSS[Aib]NFGPILPPTRVGSNTY-NH2
modifications: disulfide 2-7; N-terminus assumed
SMILES: CC[C@H](C)[C@H](NC(=O)[C@@H]1CCCN1C(=O)CNC(=O)[C@H](Cc1ccccc1)NC(=O)[C@H](CC(N)=O)NC(=O)C(C)(C)NC(=O)[C@H](CO)NC(=O)[C@H](CO)NC(=O)[C@H](Cc1c[nH]cn1)NC(=O)[C@@H](NC(=O)[C@H](CC(C)C)NC(=O)[C@H](Cc1ccccc1)NC(=O)[C@H](CC(N)=O)NC(=O)[C@H](C)NC(=O)[C@H](CC(C)C)NC(=O)[C@H](CCCNC(=N)N)NC(=O)[C@H](CCC(N)=O)NC(=O)[C@@H](NC(=O)[C@H](C)NC(=O)[C@@H]1CSSC[C@H](NC(=O)[C@@H](N)CCCCNC(=O)CC[C@H](NC(=O)CC[C@H](NC(=O)CCCCCCCCCCCCCCCCC(=O)O)C(=O)O)C(=O)O)C(=O)N[C@@H](CC(N)=O)C(=O)N[C@@H]([C@@H](C)O)C(=O)N[C@@H](C)C(=O)N[C@@H]([C@@H](C)O)C(=O)N1)[C@@H](C)O)C(C)C)C(=O)N[C@@H](CC(C)C)C(=O)N1CCC[C@H]1C(=O)N1CCC[C@H]1C(=O)N[C@H](C(=O)N[C@@H](CCCNC(=N)N)C(=O)N[C@H](C(=O)NCC(=O)N[C@@H](CO)C(=O)N[C@@H](CC(N)=O)C(=O)N[C@H](C(=O)N[C@@H](Cc1ccc(O)cc1)C(N)=O)[C@@H](C)O)C(C)C)[C@@H](C)O

The binders below were run against T1, human amylin receptor (calcitonin …) (assay: cell-based or functional assay).

| EC50 (cAMP production) | Ratio (EC50 hCTR / EC50 hAMYR3) | Binder |
| --- | --- | --- |
| 192 pM | 9 | B1 |
| 207 pM | 31 | B2 |
| 235 pM | 23 | B3 |
| 418 pM | 17 | B4 |
| 164 pM | 10 | B5 |
| 132 pM | 30 | B6 |

These binders were tested against T2, human calcitonin receptor (assay: cell-based or functional assay).

| EC50 (cAMP production) | Binder |
| --- | --- |
| 1770 pM | B1 |
| 6400 pM | B2 |
| 5400 pM | B3 |
| 7010 pM | B4 |
| 1570 pM | B5 |
| 4010 pM | B6 |
